Experimental data reported in US20210037856A1, “Ruminant Feed Composition Comprising A Muramidase” (Novozymes A/S, priority 2018, published 2021).

Test system: rumen fluid
Assay: in vitro ruminal fermentation, 22 muramidases, 12 h (Example 4)
Set-up: species or system cow; DMd: unit not given here
Conditions: muramidase 0.20 mg/40 ml; for Acetate / Butyrate / Propionate: VFA production after 12 h; for DMd: dry matter digestibility after 12 h of ruminal fermentation in vitro; for Total VFA: sum of VFA after 12 h; for Carbon in VFA: summed carbon in VFA after 12 h
Experimental: The trial was performed by Alimetrics (Alimetrics Ltd, Koskelontie 19B, FIN-02920 Espoo, Finland) using 120 mL serum bottles as fermentation vessels. The fermentation preparation and procedure is presented in Kettunen et al., (Kettunen H., J. Vuorenmaa, D. Gaffney and J. Apajalahti (2016): Yeast hydrolysate product enhances ruminal fermentation in vitro. J. App. Anim. Nutr., Vol. 4; e1; page 1 of 7). In short, the method is as follows: All bottles were initially filled with 1 g of feed DM composed from corn silage, barley meal, soybean meal, at the amounts of 0.5, 0.4, and 0.1 g DM, respectively. Subsequently, the bottles were flushed with CO2 passed through a hot copper catalyst for O2 scavenging and sealed with thick butyl rubber stopper. Anaerobic, reduced and temperature adjusted (+38° C.) artificial saliva buffer solution (Modified from Agriculture Handbook No. 379, (USDA, Washington, D.C., 1975), volume of 37.65 ml), freshly strained rumen fluid (5% inoculum; volume of 2 ml), and test compounds (volume of 0.35 ml) was introduced into the fermentation vessels under the oxygen-free CO2 flow. Following rumen fluid was collected from a ruminal cannulated cow. Rumen fluid was pumped directly from the rumen into a preheated thermos and immediately closed, and transported to Alimetrics laboratory. The rumen fluid was used for inoculation within 2 hours of harvest. To ensure that both liquid and particle associated ruminal microbes were present in the inoculum both fractions were obtained. Liquid and solid fractions were strained through a metal mesh (grid size 3×3 mm) under anaerobic conditions prior to buffer dilution.
Following inoculation with rumen fluid, buffer and test solution, the vessels were sealed with the butyl rubber septum's. All fermentation vessels were inoculated in random order to prevent the possible block effects. Inoculation time for each fermentation vessel was registered and was taken into account op on each sampling to ensure that duration of the fermentation was the same for each sample. The fermentation was continued for 12 h in a gyratory shaker at +38° C. Fermentation gas produced was measured and relived by collection of the fermentation gas in syringes at time 3, 6, 9, and 12 h. Feed residues were measured after 12 h fermentation.
The trial design was a dosage response, complete randomized design with 27 treatments using 145 fermentation vessels according to table 5. […] Negative control was supplemented with the same buffer solution that was used for diluting the enzymes to reach the same liquid volume as the supplemented fermentation vessels. The ionophore Monensin (Monensin sodium salt, 90-95% TLC (Sigma Aldrich; Product code: M5273-1G)) was chosen as a positive control because it is a ruminants feed additive that affects volatile fatty acids (VFA) production.
Liquid Samples Obtained at 12 h were Analyzed for the Concentration of VFA (Acetate, Propionate, butyrate, and valerate) by GC-FID using a glass column packed with 80/120 carbopack B-DA/4% Carbowax stationary and helium as a carrier gas (Kettunen H., J. Vuorenmaa, T. Rinttilä, H. Grönberg, E. Valkonen and J. Apajalahti (2015): Natural resin acid-enriched composition as a modulator of intestinal microbiota and performance enhancer in broiler chicken. J. App. Anim. Nutr., Vol. 3; e2; page 1 of 9).
Digestibility of dry matter was quantified by determination of dry matter in the original feed matrix and in all fermentation vessels after 12 h of fermentation. Feed residues from the fermentation vessels were obtained by filtration tared sintered glass filters, washed with water and dried at 105° C. for 12 hours. Finally, the glass filters are weighed for the residual feed dry matter.
Dry matter digestibility (DMd) was calculated at the ratio between feed residues after end fermentation and the dry matter fed. […]

Molecule | Acetate | Butyrate | Propionate | DMd | Total VFA | Carbon in VFA
N: mature muramidase polypeptide from Ovatospora brasiliensis, GH25; N in Example 4 (protein, listed as Ovatospora brasiliensis) FDISNWQPAGTVDFAAAYSSGARFVIIKATEGTSYIDPSFSSHYTKATNAGFIRGGYHFAHPGETTGAAEADYFIAHGGGWSNDGITLPGMLDLESENKGQCWGLSTSAMVSWIKSFSDRYKSRTGVYPLIYTNPSWWSACTGNSNAFVNTNPLVLARYASAPGTIPGGWPYQTIWQNSDSYAYGGDSDIFNGSLDRLKALAKGS | 49.3 mmol/L | 7.2 mmol/L | 40.8 mmol/L | 0.59 | 98 mmol/L | 253 mmol/L
W: mature muramidase polypeptide from Chaetomium sp., novel MUR polypeptide; W in Example 4 (protein, Chaetomium sp) YPITGDPLNCRSGPGTSYAIKKSYTKGADIKISCQTEGTSVNGNSIWDKTQDGCYVADFYVKTGVDGYVTKKCSGGGGDTGGGSGGIPGPVKDDYPYKSSCGGVDPWNYYKCQCTSFVAWRINKRLGIKFHNQYKGTNWGNANTWDNAAKKTGVKVNSTPKPGAIAQSNAGNYGHVAWVTAVNGNKVTIEEYNWGKREGYGKRTVDKSAFNYIHVKA | 48.9 mmol/L | 6.7 mmol/L | 40.9 mmol/L | 0.59 | 97 mmol/L | 250 mmol/L
T: mature muramidase polypeptide from Chaetomium sp., novel MUR polypeptide; T in Example 4 (protein, Chaetomium sp) YHIKGSIVNCRAGPGTSHAVKKTYAKGQNVQISCQTTGNIIHGNNIWDLTQDGCYVADYYVKTGTDGFVTDKCSSSGNSGVSGTSTSSVGGAAGPMKDDYPYKSNCEGTDPWLYFKCQCTSFVAWRINERLGIKFHNQYKGVNWGDANTWDDAAKRTGVTVNKTPKPGCVAQTDKGTWGHVAWVAAVGDETVTIEEYNYGGKERYGTRTVPKGEFDYIHVKN | 53.6 mmol/L | 7.8 mmol/L | 45.1 mmol/L | 0.57 | 107 mmol/L | 277 mmol/L
V: mature muramidase polypeptide from Acremonium exiguum, novel MUR polypeptide; V in Example 4 (protein, listed as Acremonium exiguum) RSIPIVARAYPGLDDVQSRNAEAALGEIRAEGINPARQACLAVISTALQESELYIYANPAVPESMNYPHDREGGDQDSVGMFQQRPEWYPDIAADMSASGSTRQFLAAMLQVPGWQTMEVSALDQEVQKAEAGNLYGQRIPLATQVCDAAGF | 49.2 mmol/L | 7.1 mmol/L | 40.6 mmol/L | 0.59 | 97 mmol/L | 252 mmol/L
U: mature muramidase polypeptide from Zopfiella Sp., novel MUR polypeptide; U in Example 4 (protein, Zopfiella sp) YPIKGDTVNCRSGPGTSFAVKKTYAKGKDIKITCQTTGTSVNGNNIWDKTSDGCYVADYYVKTGKDGFVTDKCDASSVPKPPATKIPGPVTNDYPYKSSCGGVDPWNYYKCQCTSFVAWRVNKRLGKKFHNRYKGHAWGNANQWDEAAKQSGVKVNSTPKPGCIAQTNAGSYGHVAWVTAVGKDTVTIEEYNWNKKLGYGTRTVAKSKFNYIHLEP | 49.1 mmol/L | 7.1 mmol/L | 40.5 mmol/L | 0.60 | 97 mmol/L | 251 mmol/L
S: mature muramidase polypeptide from Aspergffius sp., novel MUR polypeptide; S in Example 4 (protein, listed as Aspergillus sp.) YPVKADVHCRSGPGTSYSIVKTYSTGTQISVSCQAAGTDVDGDQLWDKTSDGCYVSDYYVSTGSSNYVTSHCPTEYAIKTDVNCRSGPGTNYGIVKTYNQGVMVSLNCQASGTDVDGDSLWDKTSDGCYVSDYYVATGSSSYVTSACSGSSSSGGGGSSSSGNLPSLDSTQSAHARAIIGEAKSQNVGRQGCLAGIATALVESSMLMYANSNVAASLSYPHDAVGSDYDSVGLFQQRVSIYTNLAADMDAAQSAGQFFDEMKKVSGWETMNVGDLCQEVQRSAYPDRYAGEVSTAESICSAGGL | 49.4 mmol/L | 7.1 mmol/L | 41.2 mmol/L | 0.58 | 98 mmol/L | 254 mmol/L
Y: mature muramidase polypeptide from Ovatospora brasiliensis, novel MUR polypeptide; Y in Example 4 (protein, listed as Ovatospora brasiliensis) YPVKADSLNCRSGPGTSYKVVKTYKKGADIKISCQTEGPSVNGDNLWIKTQDGCYVADYYVKTGTNGYVAKKCSSGGSTGGGSGGGKGNLPGLNAKQSSHARAIVAQAKKDGVGLHGCEAGIATALVESGIKVYANKKVPASLKYPHDAVGSDHDSIGIFQQRAVYYPNIAADMDPARSAHQFFAKMKGVSGWKTMAVGKLCQKVQVSAYPDRYAKRVSEATKICKAAGI | 50.8 mmol/L | 6.1 mmol/L | 43.1 mmol/L | 0.57 | 100 mmol/L | 258 mmol/L
Z: mature muramidase polypeptide from Penicillium wellingtonense, novel MUR polypeptide; Z in Example 4 (protein, Penicillium wellingtonense) YPITGDVVNCRSGPGTTYDVVKSYKLNADVSITCQAPGTDVKGDSVWDKTADGCYVADYYVKTGSSSYVTTKCGGDDDGGDNDGGSSGNLPGLTSTQSKHAKDIIAEAKSEDLGRQGCLAGIATAIVESNILIYANSGVPESLKYPHDAVGSDHDSVGIFQQRAMFYKDIAADMDAGKSAGQFFGKMKAVSGWKSMDVGTLCQKVQGSAYPSRYAEQVSKAEKICKAGGL | 48.7 mmol/L | 6.9 mmol/L | 39.6 mmol/L | 0.56 | 96 mmol/L | 247 mmol/L
